Measured values reported in US10829756B2, “Discovery of enzymes from the alpha-keto acid decarboxylase family” (priority 2015, dated 2020).
Residue numbers refer to the chain shown, from its start. Numbers in names are those of the source.

Legend:
Assay in all cases: Steady-state kinetics of 2-ketoacid decarboxylase (ADH/NADH coupled)
Conditions in all cases: other: pH 7.5, 21° C.
[1] = substrate: CC(C)C(=O)C(=O)O; assay type: biochemical
Description: To evaluate if the integrative genomic mining approach enriches the mining for C8 activity, an additional set of previously characterized ketoacid decarboxylases diverse in sequence were experimentally characterized in an equivalent manner. […] The median C8 activity from the GEOs selected using the integrative genomic mining approach is 75-fold higher than the naively picked decarboxylases (Table 1, FIG. 4). This indicates the integrative genomic mining approach is effective in identifying functional enzymes that perform the desired reaction on C8.
For the native KIVD and KIVD_VLV mutant, 2 ml overnight cultures of XL1B cells were transformed with pQE9 containing N-terminal his-tagged KIVD enzymes and grown in Terrific Broth (BP biomedical, Cat#3046-042) with 50 μg/mL of carbenicillin. […] Protein concentrations were determined using a Synergy H1 spectrophotometer (Biotek) by measuring absorbance at 280 nm using their calculated extinction coefficients with ExPASy ProtParam Tool.^33 All other buffers and salts were purchased from Fisher Scientific unless otherwise specified.
The kcat and KM values of selective KIVD mutants were measured for the substrates: C3, C5, isoC5, and C8. […] Activity was measured at 0.005 mM to 10 mM substrates. […] Absorbance readings were taken every 1-minute at OD340 at 21° C. for 60 minutes using the Synergy H1. […]

[2] = substrate: CCCC(=O)C(=O)O; assay type: biochemical, Lactococcus lactis
Procedure: (§1) For the native KIVD and KIVD_VLV mutant, 2 ml overnight cultures of XL1B cells were transformed with pQE9 containing N-terminal his-tagged KIVD enzymes and grown in Terrific Broth (BP biomedical, Cat#3046-042) with 50 μg/mL of carbenicillin. (Fisher scientific, Cat# BP2648-5) For the GEOs, 2 ml overnight cultures of BLR cells were transformed with pet29b+ plasmid containing N-terminal his-tagged GEOs, and grown in Terrific Broth with 50 μg/mL of kanamycin. (Fisher scientific, Cat# BP906-5) These cultures were diluted 1:1000 in 500 mL of Terrific Broth with 1 mM MgSO4, 1% glucose, and 50ug/mL of corresponding antibiotics, then grown at 37° C. for 24 hours. Cultures were pelleted down at 4700 rpm for 10 mins and resuspended in auto-induction media (LB broth, 1 mM MgSO4, 0.1 mM TPP, 1×NPS, and 1×5052) for induction at 18° C. for 34 hours. At the end of induction, cells were centrifuged (4700 rpm, 4° C., 20 minutes), supernatant was removed, and cells were resuspended in 40 mL lysis buffer (100 mM Hepes pH 7.5, 100 mM NaCl, 10% glycerol, 0.1 mM TPP, 1 mM MgSO4, 10 mM Imidazole, 1 mM TCEP) and 1 mM PMSF) and sonicated for 2 minutes. Lysed cells were centrifuged at 4700 rpm at 4° C. for 60 mins to remove cell debris. Supernatant was loaded on gravity flow column with 700 μl of cobalt slurry (Fisher scientific, CAT# PI-90091) washed with 10 ml of wash buffer (100 mM Hepes pH 7.5, 100 mM NaCl, 10% glycerol, 0.1 mM TPP, 1 mM MgSO4, 10 mM Imidazole, and 1 mM TCEP). Cobalt bead bed was washed with 15 ml of wash buffer 5 times and proteins were eluted with 1000 μl of elution buffer (100 mM Hepes pH 7.5, 100 mM NaCl, 10% glycerol, 0.1 mM TPP, 1 mM MgSO4, 200 mM Imidazole, and 1 mM TCEP). Protein samples were immediately buffer exchanged with spin concentrators (Satorius, CAT# VS0112) into storage buffer (100 mM Hepes pH 7.5, 100 mM NaCl, 10% glycerol, 0.1 mM TPP, 1 mM MgSO4, and 1 mM TCEP) and stored at 4° C. until kinetics characterization. Protein concentrations were determined using a Synergy H1 spectrophotometer (Biotek) by measuring absorbance at 280 nm using their calculated extinction coefficients with ExPASy ProtParam Tool.^33 All other buffers and salts were purchased from Fisher Scientific unless otherwise specified.
(§2) The kcat and KM values of selective KIVD mutants were measured for the substrates: C3, C5, isoC5, and C8. All substrates were dissolved in MilliQ H2O and pH was adjusted to 7.5 as necessary. Activity was measured at 0.005 mM to 10 mM substrates. The assay was performed in a 96-well half-area plate. Each reaction contains a final concentration of 0.5 mM NADH, 1 mM DTT, 0.1 mM TPP, 1 mM MgSO4, reaction buffer (100 mM Hepes, 100 mM NaCl, 10% glycerol, pH 7.5) and ADH (Sigma Aldrich, A7011, 10 U/ml for C3, C5 and C8 reactions, 500 U/ml for isoC5 reactions). A wide range of ketoacid decarboxylase concentrations, 4.5 nM-15 μM, were used according to the activity of each enzyme toward different substrates in order to perform steady state kinetics measurement over a period of an hour. Absorbance readings were taken every 1-minute at OD340 at 21° C. for 60 minutes using the Synergy H1. Kinetic parameters (kcat and KM) were determined by fitting initial velocity versus substrate concentration data to the Michaelis-Menten equation.

[3] = substrate: CCCCCCC(=O)C(=O)O; assay type: biochemical, Lactococcus lactis
Procedure: as §1, §2

[4] = substrate: CC(C)C(=O)C(=O)O; assay type: biochemical, Lactococcus lactis
Procedure: as §1, §2

[5] = substrate: CCCC(=O)C(=O)O; assay type: biochemical, Lactococcus lactis; remark: listed apart in the source
Procedure: (§3) Since KIVD can already efficiently utilize C8 as a substrate, enzyme specificity is of primary importance. Therefore each mutant was screened against a panel of 2-ketoacid substrates in order to assess the specificity and activity of each mutant. (FIG. 11) This assay was performed using a high-throughput pH-dependent colorimetric assay of enzyme activity in crude cell extracts. Mutations that increased specificity for C8 were then combined to produce combinatorial mutants and screened for specificity with the colorimetric assays. […] The engineered enzyme KIVD_VLV has a 600-fold improvement in specificity between C8 and C5, in terms of catalytic efficiency, relative to the native KIVD.
as §1, with “Supernatant was loaded on gravity flow column with 700 μl of cobalt slurry (Fisher scientific, CAT# PI-90091) washed with 10 ml of wash buffer (100 mM Hepes pH 7.5, 100 mM NaCl, 10% glycerol, 0.1 mM TPP, 1 mM MgSO4, 10 mM Imidazole, and 1 mM TCEP). Cobalt bead bed was washed with 15 ml of wash buffer 5 times and proteins were eluted with 1000 μl of elution buffer (100 mM Hepes pH 7.5, 100 mM NaCl, 10% glycerol, 0.1 mM TPP, 1 mM MgSO4, 200 mM Imidazole, and 1 mM TCEP). Protein samples were immediately buffer exchanged with spin concentrators (Satorius, CAT# VS0112) into storage buffer (100 mM Hepes pH 7.5, 100 mM NaCl, 10% glycerol, 0.1 mM TPP, 1 mM MgSO4, and 1 mM TCEP) and stored at 4° C. until kinetics characterization.” left out
(§4) The kcat and KM values of selective KIVD mutants were measured for the substrates: C3, C5, isoC5, and C8. […] Activity was measured at 0.005 mM to 10 mM substrates. […] Absorbance readings were taken every 1-minute at OD340 at 21° C. for 60 minutes using the Synergy H1. Kinetic parameters (kcat and KM) were determined by fitting initial velocity versus substrate concentration data to the Michaelis-Menten equation.

[6] = substrate: CCCCCCC(=O)C(=O)O; assay type: biochemical, Lactococcus lactis; remark: listed apart in the source
Procedure: as §3
as §1, with “Supernatant was loaded on gravity flow column with 700 μl of cobalt slurry (Fisher scientific, CAT# PI-90091) washed with 10 ml of wash buffer (100 mM Hepes pH 7.5, 100 mM NaCl, 10% glycerol, 0.1 mM TPP, 1 mM MgSO4, 10 mM Imidazole, and 1 mM TCEP). Cobalt bead bed was washed with 15 ml of wash buffer 5 times and proteins were eluted with 1000 μl of elution buffer (100 mM Hepes pH 7.5, 100 mM NaCl, 10% glycerol, 0.1 mM TPP, 1 mM MgSO4, 200 mM Imidazole, and 1 mM TCEP). Protein samples were immediately buffer exchanged with spin concentrators (Satorius, CAT# VS0112) into storage buffer (100 mM Hepes pH 7.5, 100 mM NaCl, 10% glycerol, 0.1 mM TPP, 1 mM MgSO4, and 1 mM TCEP) and stored at 4° C. until kinetics characterization.” left out
as §4

B1: 1OZF, ketoacid decarboxylase (Klebsiella pneumoniae) (protein)
chain: MDKQYPVRQWAHGADLVVSQLEAQGVRQVFGIPGAKIDKVFDSLLDSSIRIIPVRHEANAAFMAAAVGRITGKAGVALVTSGPGCSNLITGMATANSEGDPVVALGGAVKRADKAKQVHQSMDTVAMFSPVTKYAIEVTAPDALAEVVSNAFRAAEQGRPGSAFVSLPQDVVDGPVSGKVLPASGAPQMGAAPDDAIDQVAKLIAQAKNPIFLLGLMASQPENSKALRRLLETSHIPVTSTYQAAGAVNQDNFSRFAGRVGLFNNQAGDRLLQLADLVICIGYSPVEYEPAMWNSGNATLVHIDVLPAYEERNYTPDVELVGDIAGTLNKLAQNIDHRLVLSPQAAEILRDRQHQRELLDRRGAQLNQFALHPLRIVRAMQDIVNSDVTLTVDMGSFHIWIARYLYTFRARQVMISNGQQTMGVALPWAIGAWLVNPERKVVSVSGDGGFLQSSMELETAVRLKANVLHLIWVDNGYNMVAIQEEKKYQRLSGVEFGPMDFKAYAESFGAKGFAVESAEALEPTLRAAMDVDGPAVVAIPVDYRDNPLLMGQLHLSQIL
- Km [1]: 1800 ± 100 µM
- kcat [1]: 0.03 ± 0.001 s⁻¹

B2: Native KIVD (ketoisovalerate decarboxylase), wild type, SEQ ID NO:1 (Lactococcus lactis subsp. lactis) (protein)
chain: MYTVGDYLLDRLHELGIEEIFGVPGDYNLQFLDQIISRKDMKWVGNANELNASYMADGYARTKKAAAFLTTFGVGELSAVNGLAGSYAENLPVVEIVGSPTSKVQNEGKFVHHTLADGDFKHFMKMHEPVTAARTLLTAENATVEIDRVLSALLKERKPVYINLPVDVAAAKAEKPSLPLKKENSTSNTSDQEILNKIQESLKNAKKPIVITGHEIISFGLEKTVSQFISKTKLPITTLNFGKSSVDEALPSFLGIYNGKLSEPNLKEFVESADFILMLGVKLTDSSTGAFTHHLNENKMISLNIDEGKIFNESIQNFDFESLISSLLDLSEIEYKGKYIDKKQEDFVPSNALLSQDRLWQAVENLTQSNETIVAEQGTSFFGASSIFLKPKSHFIGQPLWGSIGYTFPAALGSQIADKESRHLLFIGDGSLQLTVQELGLAIREKINPICFIINNDGYTVEREIHGPNQSYNDIPMWNYSKLPESFGATEERVVSKIVRTENEFVSVMKEAQADPNRMYWIELILAKEDAPKVLKKMGKLFAEQNKS
- Km [2]: 1500 ± 100 µM
- kcat [2]: 14.3 ± 0.2 s⁻¹
- Km [3]: 210 ± 40 µM
- kcat [3]: 7 ± 0.3 s⁻¹
- Km [4]: 4500 ± 300 µM
- kcat [4]: 61 ± 2.1 s⁻¹

B3: KIVD variant G402V/M538L/F542V (KIVD_VLV), SEQ ID NO:3 (Lactococcus lactis subsp. lactis; F542V/G402V/M538L) (protein)
chain: B2 chain with G402V, M538L, F542V
- Km [5]: 10000 ± 1000 µM
- kcat [5]: 0.013 ± 0.001 s⁻¹
- Km [6]: 180 ± 50 µM
- kcat [6]: 0.5 ± 0.03 s⁻¹
